Results from patent publication US20090111753A1, “Nogo-A Polypeptide Fragments, Variant Nogo Receptor-1 Polypeptides, and Uses Thereof” (Yale University, priority 2004, published 2009).
Where a chain is given by its changes, count along the chain named. No end group written: not given here.

T1: AP-Nogo66 (Homo sapiens, UniProt Q9NQC3)
T1 construct: made in house; NgR mutants: COS-7
T1 sequence (Q9NQC3 1055-1120 limits assumed): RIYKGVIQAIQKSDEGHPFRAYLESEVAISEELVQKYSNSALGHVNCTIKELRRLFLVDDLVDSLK

T2: AP-Lingo-1 (Homo sapiens, UniProt Q96FE5)
T2 construct: made in house; NgR mutants: COS-7
T2 sequence (Q96FE5 40-538 limits assumed): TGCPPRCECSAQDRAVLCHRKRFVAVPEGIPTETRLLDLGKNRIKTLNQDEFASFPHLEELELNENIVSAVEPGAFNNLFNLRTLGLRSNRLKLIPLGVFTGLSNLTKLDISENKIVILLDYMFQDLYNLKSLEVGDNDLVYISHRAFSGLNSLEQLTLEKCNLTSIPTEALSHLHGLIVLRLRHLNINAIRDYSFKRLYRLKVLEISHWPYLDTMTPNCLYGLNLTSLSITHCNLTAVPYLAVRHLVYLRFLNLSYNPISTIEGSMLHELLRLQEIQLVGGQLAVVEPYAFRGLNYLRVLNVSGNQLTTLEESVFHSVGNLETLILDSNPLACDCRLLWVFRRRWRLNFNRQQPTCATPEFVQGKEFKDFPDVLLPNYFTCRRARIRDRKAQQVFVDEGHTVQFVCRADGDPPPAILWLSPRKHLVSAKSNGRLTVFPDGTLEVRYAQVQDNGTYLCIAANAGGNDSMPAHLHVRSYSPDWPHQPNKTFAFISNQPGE

T3: AP-B4C (Homo sapiens, UniProt Q9NQC3)
T3 construct: a.a; 950-1018 (AmNg B4C); made in house; host or cells: AP ligand: HEK293T conditioned medium; NgR mutants: COS-7
T3 sequence (Q9NQC3 950-1018): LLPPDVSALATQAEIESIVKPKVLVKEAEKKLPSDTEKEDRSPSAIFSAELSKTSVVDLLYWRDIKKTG

T4: AP-Nogo-66 (UniProt Q9NQC3 1055-1120)
T4 construct: domain: Nogo-66; construct described elsewhere (Fournier 2001); also called AP-Ng66; Ng66; not shown: alkaline phosphatase (AP); construct described elsewhere
T4 sequence (looked up): T1 sequence (Q9NQC3 1055-1120 limits assumed)

T5: AP-fused Amino-Nogo fragment B4C (a.a. 950-1018) (human, UniProt Q9NQC3 950-1018)
T5 construct: also called AmNg B4C; AP-B4C; not shown: alkaline phosphatase (AP), vector pcAP6
T5 sequence: T3 sequence (Q9NQC3 950-1018)

T6: AP fusion protein with the B4C fragment of Amino-Nogo-A fused directly to Nogo-66 (human, UniProt Q9NQC3 1055-1120)
T6 construct: domain: Nogo-66; also called AP-B4C66; AP-B4C-66; not shown: alkaline phosphatase (AP), vector pcAP6
T6 sequence: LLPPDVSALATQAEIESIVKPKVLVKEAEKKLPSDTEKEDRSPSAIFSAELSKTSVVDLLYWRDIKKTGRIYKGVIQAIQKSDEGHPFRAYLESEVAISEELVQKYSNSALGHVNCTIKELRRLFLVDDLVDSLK

T7: NgR (Homo sapiens, UniProt Q9BZR6)
T7 construct: expressed in transfected cells; host or cells: COS-7
T7 sequence (Q9BZR6 27-447): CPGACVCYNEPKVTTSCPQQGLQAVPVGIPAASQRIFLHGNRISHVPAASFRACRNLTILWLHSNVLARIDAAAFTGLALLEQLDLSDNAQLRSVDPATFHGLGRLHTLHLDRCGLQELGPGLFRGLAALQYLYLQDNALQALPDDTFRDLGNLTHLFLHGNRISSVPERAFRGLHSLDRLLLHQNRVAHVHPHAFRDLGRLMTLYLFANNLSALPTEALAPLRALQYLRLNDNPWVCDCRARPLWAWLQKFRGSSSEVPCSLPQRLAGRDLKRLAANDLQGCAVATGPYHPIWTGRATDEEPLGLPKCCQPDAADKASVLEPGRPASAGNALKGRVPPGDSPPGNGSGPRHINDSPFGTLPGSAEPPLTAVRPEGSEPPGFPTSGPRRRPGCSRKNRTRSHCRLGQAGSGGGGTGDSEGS

B1: human NgR1 alanine mutant 211, 213, 237, 256, 259, 284 (receptor)
chain: CPGACVCYNEPKVTTSCPQQGLQAVPVGIPAASQRIFLHGNRISHVPAASFRACRNLTILWLHSNVLARIDAAAFTGLALLEQLDLSDNAQLRSVDPATFHGLGRLHTLHLDRCGLQELGPGLFRGLAALQYLYLQDNALQALPDDTFRDLGNLTHLFLHGNRISSVPERAFRGLHSLDRLLLHANAVAHVHPHAFRDLGRLMTLYLFANALSALPTEALAPLRALQYLALNANPWVCDCRARPLWAWLQKFRGSSSAVPCSLPQRLAGRDLKRLAANDLQGCAVATGPYHPIWTGRATDEEPLGLPKCCQPDAADKASVLEPGRPASAGNALKGRVPPGDSPPGNGSGPRHINDSPFGTLPGSAEPPLTAVRPEGSEPPGFPTSGPRRRPGCSRKNRTRSHCRLGQAGSGGGGTGDSEGSGALPSLTCSLTPLGLALVLWTVLGPC
B2: human NgR1 alanine mutant 189, 191, 211, 213, 237, 256, 259, 284 (receptor)
chain: B1 chain with R163A, S165A
B3: a.a. 181-864 (AmNg A): AP fusion protein of human Amino-Nogo fragment A, aa 181-864 of Nogo-A (protein)
chain: SSGSVDETLFALPAASEPVIRSSAENMDLKEQPGNTISAGQEDFPSVLLETAASLPSLSPLSAASFKEHEYLGNLSTVLPTEGTLQENVSEASKEVSEKAKTLLIDRDLTEFSELEYSEMGSSFSVSPKAESAVIVANPREEIIVKNKDEEEKLVSNNILHNQQELPTALTKLVKEDEVVSSEKAKDSFNEKRVAVEAPMREEYADFKPFERVWEVKDSKEDSDMLAAGGKIESNLESKVDKKCFADSLEQTNHEKDSESSNDDTSFPSTPEGIKDRSGAYITCAPFNPAATESIATNIFPLLGDPTSENKTDEKKIEEKKAQIVTEKNTSTKTSNPFLVAAQDSETDYVTTDNLTKVTEEVVANMPEGLTPDLVQEACESELNEVTGTKIAYETKMDLVQTSEVMQESLYPAAQLCPSFEESEATPSPVLPDIVMEAPLNSAVPSAGASVIQPSSSPLEASSVNYESIKHEPENPPPYEEAMSVSLKKVSGIKEEIKEPENINAALQETEAPYISIACDLIKETKLSAEPAPDFSDYSEMAKVEQPVPDHSELVEDSSPDSEPVDLFSDDSIPDVPQKQDETVMLVKESLTETSFESMIEYENKEKLSALPPEGGKPYLESFKLSLDNTKDTLLPDEVSTLSKKEKIPLQMEELSTAVYSNDDLFISKEAQIRETETFSDSSP
modifications: left off: large carriers
notes: AP fusion protein of human Amino-Nogo fragment A, aa 181-864 of Nogo-A

How the values were obtained:
E13 chick DRG neurons = test: AP fusion protein binding to dissociated E13 chick DRG neurons
Source text: FIG. 1E. Binding of AP fused Amino-Nogo fragments to dissociated E13 chick DRG neurons. Conditioned media from HEK293T cells containing AP fusion protein as indicated were applied to dissociated E13 chick DRG neurons and bound AP was stained.
If these Amino-Nogo fragments are to play a role in regulating neurite outgrowth then they would be expected to bind to neuronal processes. Previously, we have shown that AP-Nogo-66 binds to NgR on DRG processes (Fournier, A. E., et al., Nature 409:341-346 (2001)).

AP-Nogo66 = target: T1, AP-Nogo66; test: Binding of AP-Nogo66 to COS-7 cells expressing NgR mutants; set-up: key: ++: WT level; +: weaker than wild type; trace binding; −: no binding; details: AP-Ng66 5 nM; level of binding compared to wild type NgR
In short: (§1)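 COS-7 cells expressing Ala-substituted human NgR1 mutants incubated with AP-fused ligands at near-Kd levels (AP-Ng66 5 nM, AP-B4C66 0.5 nM, AP-Lingo-1 10 nM, AP-OMGP 10 nM). Bound AP stained and measured as % of wild-type NgR; graded ++/+/tr/−.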

AP-Lingo-1 = target: T2, AP-Lingo-1; test: Binding of AP-Lingo-1 to COS-7 cells expressing NgR mutants; set-up: key: ++: WT level; +: weaker than wild type; trace binding; −: no binding; details: AP-Lingo-1 10 nM; level of binding compared to wild type NgR
In short: as §1

NgR ligands = test: Binding of alanine substituted NgR mutants to NgR ligands, summary categories; details: AP-Nogo66, AP-B4C, AP-B4C66, AP-Lingo-1, AP-OMgp and AP-MAG; compared to wild type NgR
In short: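 Human NgR1 template; 74 mutants with 1-8 solvent-exposed charged surface residues (within 5 Å) Ala-substituted, plus glycosylation-site mutants and D259N polymorphism. Mutants tested for binding of AP-tagged Nogo66, Amino-Nogo-B4C, B4C66, MAG, OMgp and Lingo-1; each classed as losing all, keeping all, or selective ligand binding.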

AP-B4C66 = test: Binding of AP-B4C66 to COS-7 cells expressing NgR mutants; set-up: key: ++: WT level; +: weaker than wild type; trace binding; −: no binding; details: AP-B4C66 0.5 nM; level of binding compared to wild type NgR
In short: as §1

AP-OMgp = test: Binding of AP-OMgp to COS-7 cells expressing NgR mutants; set-up: key: ++: WT level; +: weaker than wild type; trace binding; −: no binding; details: AP-OMGP 10 nM; level of binding compared to wild type NgR
In short: as §1

AP-MAG = test: Binding of AP-MAG to COS-7 cells expressing NgR mutants; set-up: key: ++: WT level; +: weaker than wild type; trace binding; −: no binding; details: AP-MAG 30 nM; level of binding compared to wild type NgR
AP-B4C = target: T3, AP-B4C; test: Binding of AP-B4C to COS-7 cells expressing NgR mutants; set-up: key: ++: WT level; +: weaker than wild type; trace binding; −: no binding; details: AP-B4C 10 nM; level of binding compared to wild type NgR
AP-Nogo-66 = target: T4, AP-Nogo-66; test: AP-ligand binding, COS-7
[1] = target: T5, AP-fused Amino-Nogo fragment B4C (a.a. …); test: AP-ligand binding, COS-7
[2] = target: T6, AP fusion protein with the B4C fragment …; test: AP-ligand binding, COS-7
NgR = target: T7, NgR; test: AP fusion protein binding to NgR expressing COS-7 cells; details: AP fused Amino-Nogo fragments in conditioned media on NgR expressing COS-7 cells; 'No binding at' cells continue on the next line: AmNg A 150 nM; a.a. 1000-1018, a.a. 1005-1018, Amino of NgC 25 nM; a.a. 950-1004 50 nM; Amino of NgB 100 nM
In short: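 Conditioned media from HEK293T cells transfected with AP-fused human Amino-Nogo-A fragments, collected after 7 days, applied to NgR-expressing COS-7 cells. Bound AP stained and quantified by image analysis; saturable binding used to derive Kd.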

| Molecule | binding to DRG axons/neurons (E13 chick DRG neurons) | Ng66 (AP-Nogo66) | Lingo-1 (AP-Lingo-1) | ligand binding category of NgR mutant (Table II) (NgR ligands) | B4C-66 (AP-B4C66) | OMgp (AP-OMgp) | MAG (AP-MAG) | B4C (AP-B4C) | binding result (AP-Nogo-66) | binding result [1] | binding result [2] | NgR Kd (nM) (NgR) |
| --- | --- | --- | --- | --- | --- | --- | --- | --- | --- | --- | --- | --- |
| IFSAELSKTSVVDLLYWRDIKKTG (not fully specified) [a.a. 995-1018 (Amino-Nogo-A-24), AP fusion protein of Nogo-A aa 995-1018] | binding to DRG axons |  |  |  |  |  |  |  |  |  |  |  |
| B1 |  | − | ++ | Differential binding | − | − | − | − | no binding | no binding | no binding |  |
| B2 |  | − | ++ | Differential binding | − | − |  | − | no binding | no binding | no binding |  |
| B3 | binds to DRG axons |  |  |  |  |  |  |  |  |  |  | No Binding |
